The values below come from patent US11136407 (AIMM THERAPEUTICS B V, dated 2021).

Where a chain is given by its changes, count along the chain named. Numbers in names are those of the source. Bridges are numbered along the chain shown (N, C = ends). Primed or numbered codes have the meaning given here. Where no end group is shown, it is not given here. The star is where a group is joined. PEG2′ = PEG2 spacer group linking an N-terminal biotin to the peptide; Biotin = O=C1N[C@H]2[C@H](CS[C@H]2CCCCC(=O)*)N1

Broadly, the Kd is a measure of binding affinity in units of concentration. Higher therefore signals lower affinity. For orientation: koff means the rate constant with which the complex falls apart. A high value points to fast dissociation. By kon is commonly meant the second-order rate constant of association. The low end stands for slower complex formation, the high end for faster complex formation.

One assay deals with T1, mouse CD9 on platelets (mouse, UniProt P40240 1-226).
T1 construct: whole, on cells
T1 sequence (looked up): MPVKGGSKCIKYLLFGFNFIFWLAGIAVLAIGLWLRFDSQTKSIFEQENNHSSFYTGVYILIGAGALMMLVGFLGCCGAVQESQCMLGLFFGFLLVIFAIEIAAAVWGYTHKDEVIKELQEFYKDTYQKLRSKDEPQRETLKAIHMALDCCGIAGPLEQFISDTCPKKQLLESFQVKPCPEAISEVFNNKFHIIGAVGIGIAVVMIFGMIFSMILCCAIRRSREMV
As to the kind of experiment: flow cytometry on NSG mouse blood, IgG-bio SA-PeCy7.

The target of assay [1] is T2, m4 circular peptide biotin-PEG(2)-CSPKKDVLETFTVKSSC (human, disulfide 1-17; not fully specified; printed as biotin-PEG(2)-CSPKKDVLETFTVKSSC).
T2 construct: synthetic peptide; also called circular constructed m4 peptide
T2 peptide: {Biotin-PEG2′}-CSPKKDVLETFTVKSSC
As to the kind of experiment: ELISA and SPR. (In general: An ELISA detects its analyte on a solid surface through an enzyme-linked reagent.)

A further assay concerns the target T3, surface CD81 (human, UniProt P60033).
T3 construct: also called CD81 on cells
T3 sequence (tetraspanin chain, looked up): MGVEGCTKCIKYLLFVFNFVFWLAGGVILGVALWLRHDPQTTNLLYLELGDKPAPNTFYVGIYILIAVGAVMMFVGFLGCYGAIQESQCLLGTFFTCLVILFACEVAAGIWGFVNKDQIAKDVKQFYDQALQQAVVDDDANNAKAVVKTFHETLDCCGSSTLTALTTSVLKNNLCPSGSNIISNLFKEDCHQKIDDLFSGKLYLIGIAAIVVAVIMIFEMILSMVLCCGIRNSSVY
As to the kind of experiment: flow cytometry, AT14-12 (IgG1) against AT10-02 (IgG1) on transduced HL-60 cells. (In general: In flow cytometry, cells or beads pass a laser one at a time.)

The target in assay [2] is T4, CD9-3×FLAG-rabbitFc-Sortase-biotin (human; rabbit, biotin attached at the C-terminus by Sortase A with a GGG-biotin nucleophile; the HIS tag is removed by that reaction).
T4 construct: also called CD9-EC2-3×FLAG-rabbitFc; recombinant CD9-EC2 protein; not shown: Fc region (CH2-CH3) of a rabbit IgG1 protein, amino acids 108-322, UniProt P01870
T4 chain (part 1 of 2): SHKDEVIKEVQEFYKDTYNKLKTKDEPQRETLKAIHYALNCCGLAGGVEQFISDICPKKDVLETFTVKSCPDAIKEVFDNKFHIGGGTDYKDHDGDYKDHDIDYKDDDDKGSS
T4 chain (part 2 of 2): GGGSLPETGGHHHHHH
As to the kind of experiment: SPR (IBIS), B cell supernatant on the CD9 spot; unit inferred.

The next assay concerns the target T5, human CD9 (human, UniProt P21926 2-228).
T5 construct: Natural CD9 on tumor cell lines, primary cells and platelets, or in their lysates (Western blot, immunoprecipitation); also called MRP-1; MIC3
T5 sequence: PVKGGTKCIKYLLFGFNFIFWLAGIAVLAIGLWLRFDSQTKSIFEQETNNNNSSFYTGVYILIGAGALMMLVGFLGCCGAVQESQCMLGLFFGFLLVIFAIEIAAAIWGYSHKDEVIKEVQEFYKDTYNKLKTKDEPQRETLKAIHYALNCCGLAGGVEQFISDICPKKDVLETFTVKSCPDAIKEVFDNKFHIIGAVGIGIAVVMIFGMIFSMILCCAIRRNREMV
As to the kind of experiment: flow cytometry on melanoma (MelWBO) cells, CHO supernatant.

In assay [3] the target is T4, CD9-3×FLAG-rabbitFc-Sortase-biotin. As to the kind of experiment: SPR on CD9-3xFLAG-rabbitFc-Sortase-biotin spots, CHO production supernatant; unit and power of ten from the legend paragraph 219.
The target is the same in assay [4]. As to the kind of experiment: SPR on CD9-3xFLAG-rabbitFc-Sortase-biotin spots, CHO production supernatant; unit from the legend paragraph 219.
Assay [5] shares this target. As to the kind of experiment: SPR on CD9 coated chip, CHO production supernatant.

B1: antibody AT14-012 (antibody, V domains shown)
VH: EVQVVESGGGLVQPGRSLRLSCAASGFTFDDYAMHWVRQAPGKGLEWVSGISWNSGSIVYADSVKGRFTISRDNAKNSLYLQLNSLRAEDTAFYYCAKAVSGYYPYFDYWGQGILVTVSS
VL: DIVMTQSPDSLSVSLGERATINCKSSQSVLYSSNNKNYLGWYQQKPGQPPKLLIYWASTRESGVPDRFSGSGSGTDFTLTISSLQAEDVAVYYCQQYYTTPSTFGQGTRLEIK
notes: also called AT1412; WT AT14-012
As for B1, the binding result (with mouse CD9 on platelets; in assay [1]) was “no binding” in each case.

B2: AT14-012 recombinant antibody engineered as an IgG1 (antibody, V domains shown)
VH: B1 VH
VL: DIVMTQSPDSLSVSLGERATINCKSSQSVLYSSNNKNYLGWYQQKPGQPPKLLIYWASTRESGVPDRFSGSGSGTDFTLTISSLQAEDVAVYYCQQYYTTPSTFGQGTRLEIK
modifications: Some experiments used Alexa647 or biotin labelled antibody, or a sortase-tagged (ST) heavy chain. None of this is carried in the letters.
notes: May be the same molecule as m1 if m1 stands for the IgG1 form; also called AT14-012 IgG1
Turning to B2, in the assay with surface CD81, the binding result is “no binding”.

B3: 2H15 B cell subclone 2D12 (antibody, V domains shown)
VH: B1 VH with D108H
VL: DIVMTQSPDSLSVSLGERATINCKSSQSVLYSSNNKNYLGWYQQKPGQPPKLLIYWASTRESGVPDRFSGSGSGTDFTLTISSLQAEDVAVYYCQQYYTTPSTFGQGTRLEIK
notes: group 2; B cell supernatant
Take B3: in assay [2], the Kd is 5.2 nM.

B4: 2H15 B cell subclone 4H10 (antibody, V domains shown)
VH: B1 VH with H35Y
VL: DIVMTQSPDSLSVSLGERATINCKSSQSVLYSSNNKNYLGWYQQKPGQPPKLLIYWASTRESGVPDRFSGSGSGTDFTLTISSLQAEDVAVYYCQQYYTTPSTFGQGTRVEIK
notes: group 1; B cell supernatant
In turn, B4 returned a dissociation constant Kd in assay [2] of 6.1 nM.

B5: 2H15 B cell subclone 4D4 (antibody, IgG3, V domains shown)
VH: B1 VH
VL: DIVMTQSPDSLSVSLGERATINCKSSQSVLYSSNNKNYLGWYQQKPGQPPKLLIYWASIRESGVPDRFSGSGSGTDFTLTISSPQAEDVAVYYCQQYYTTPSTFGQGTRLEIK
notes: group 2; B cell supernatant, IgG3
In turn, B5 returned a Kd in assay [2] of 15.9 nM.

B6: AT14-012 single mutant T29N (antibody, V domains shown)
VH: B1 VH with T28N
VL: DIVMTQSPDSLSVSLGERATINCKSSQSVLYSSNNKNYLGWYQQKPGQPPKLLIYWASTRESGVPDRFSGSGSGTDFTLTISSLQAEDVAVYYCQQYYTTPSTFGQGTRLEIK
With B6, the binding result with human CD9 was “binds”. Besides, in assay [3], the koff is 0.00126 s⁻¹ and the kon turned out to be 25900 M⁻¹ s⁻¹. This molecule had a Kd in assay [4] of 50.1 nM.

B7: AT14-012 single mutant Y112F (antibody, V domains shown)
VH: B1 VH with Y104F
VL: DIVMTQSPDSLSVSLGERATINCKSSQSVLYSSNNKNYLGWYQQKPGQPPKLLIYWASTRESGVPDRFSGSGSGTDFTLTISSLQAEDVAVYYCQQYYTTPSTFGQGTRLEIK
In the case of B7, the binding result with human CD9 is on record as “binds”. In addition, the “fold enhancement of affinity against WT AT14-012” value (from here on “fold enhancement of affinity”) in assay [5] amounted to 50 times. In assay [3], this molecule registered a koff of 0.000203 s⁻¹ and a kon of 185000 M⁻¹ s⁻¹. In assay [4], this molecule registered a Kd of 1.09 nM.

B8: AT14-012 quadruple mutant H40Y/Y112F/D116H/T29N (antibody, V domains shown)
VH: B1 VH with T28N, H35Y, Y104F, D108H
VL: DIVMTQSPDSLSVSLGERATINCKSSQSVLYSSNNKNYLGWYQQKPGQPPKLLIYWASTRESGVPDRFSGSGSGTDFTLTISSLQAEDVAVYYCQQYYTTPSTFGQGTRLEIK
notes: also called quadruple variant
For the molecule B8, the binding result with human CD9 is “binds”. Besides, in assay [5], the Kd is about 0.455 nM and the “fold lower affinity against the group 1 double mutant (H40Y/Y112F)” value was found to be 2 times. Further, in assay [3], the koff came out at 6.92e-05 s⁻¹ and the kon stood at 153000 M⁻¹ s⁻¹. The molecule further gave a Kd in assay [4] of 0.455 nM.

B9: 2H15 B cell subclone 1D5 (antibody, V domains shown)
VH: B1 VH with H35Y
VL: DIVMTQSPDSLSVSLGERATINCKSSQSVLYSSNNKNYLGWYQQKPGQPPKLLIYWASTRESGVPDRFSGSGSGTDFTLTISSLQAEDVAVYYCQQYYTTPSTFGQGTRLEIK
notes: group 1; B cell supernatant
Take B9: the Kd in assay [2] was 2.3 nM.

B10: 2H15 B cell subclone 1F5 (antibody, V domains shown)
VH: B1 VH with Y104F
VL: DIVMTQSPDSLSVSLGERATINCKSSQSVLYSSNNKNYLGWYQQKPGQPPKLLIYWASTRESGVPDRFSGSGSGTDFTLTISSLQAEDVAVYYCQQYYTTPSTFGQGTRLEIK
notes: group 1; B cell supernatant
In assay [2], B10 returned a Kd of 3.8 nM.

B11: AT14-012 single mutant H40Y (antibody, V domains shown)
VH: B1 VH with H35Y
VL: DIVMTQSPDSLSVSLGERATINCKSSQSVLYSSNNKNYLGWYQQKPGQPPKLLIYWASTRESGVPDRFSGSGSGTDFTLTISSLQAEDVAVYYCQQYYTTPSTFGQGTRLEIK
Regarding B11, the binding result with human CD9 is recorded as “binds”. For the same molecule, the “fold enhancement of affinity” value in assay [5] is 100 times. In assay [3], the koff was 0.000202 s⁻¹ and the kon is 372000 M⁻¹ s⁻¹. In assay [4], this molecule yielded a Kd of 0.543 nM.

B12: AT14-012 double mutant H40Y/Y112F (antibody, V domains shown)
VH: B1 VH with H35Y, Y104F
VL: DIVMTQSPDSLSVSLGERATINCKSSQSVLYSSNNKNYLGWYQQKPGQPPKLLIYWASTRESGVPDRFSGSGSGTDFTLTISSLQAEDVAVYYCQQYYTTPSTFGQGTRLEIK
notes: also called double group 1 mutant; combination group 1 mutant
As for B12, the binding result with human CD9 is listed as “binds”. In assay [5], the dissociation constant (Kd) was about 0.22 nM and the “fold enhancement of affinity” value was determined as 250 times. In assay [3], this molecule registered a koff of 3.69e-05 s⁻¹ and a kon of 164000 M⁻¹ s⁻¹. Besides, the Kd in assay [4] is 0.219 nM.

B13: AT14-012 double mutant D116H/T29N (antibody, V domains shown)
VH: B1 VH with T28N, D108H
VL: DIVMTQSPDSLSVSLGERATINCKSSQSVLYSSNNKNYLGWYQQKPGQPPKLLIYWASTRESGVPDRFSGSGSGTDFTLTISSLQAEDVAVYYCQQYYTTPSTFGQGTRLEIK
notes: also called combination of the two group 2 mutations
Take B13: in the assay with human CD9, the binding result is “binds”. Besides, in assay [3], the koff came to 0.00297 s⁻¹ and the kon was found to be 708000 M⁻¹ s⁻¹. The molecule further had a Kd in assay [4] of 4.19 nM.

B14: 2H15 B cell subclone 10D1 (antibody, V domains shown)
VH: B1 VH with H35Y
VL: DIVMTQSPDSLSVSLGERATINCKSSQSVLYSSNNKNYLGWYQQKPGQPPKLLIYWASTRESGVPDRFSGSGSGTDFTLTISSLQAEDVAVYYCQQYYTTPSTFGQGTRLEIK
notes: group 1; B cell supernatant
B14 gave a Kd in assay [2] of 3.9 nM.

B15: AT14-012 single mutant D116H (antibody, V domains shown)
VH: B1 VH with D108H
VL: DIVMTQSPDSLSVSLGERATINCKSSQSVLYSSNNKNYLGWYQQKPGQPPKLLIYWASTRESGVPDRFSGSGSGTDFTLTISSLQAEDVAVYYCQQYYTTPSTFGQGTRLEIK
With B15, the binding result with human CD9 is listed as “binds”. For the same molecule, the “fold enhancement of affinity” value in assay [5] was found to be 10 times. In addition, in assay [3], the koff came out at 0.00217 s⁻¹ and the kon came out at 470000 M⁻¹ s⁻¹. Moreover, the Kd in assay [4] turned out to be 4.62 nM.
